The target of this assay is HA-CDK1 (UniProt P06493 1-297). As to the kind of experiment: pull-down.
Chain of HA-CDK1 (P06493 whole entry): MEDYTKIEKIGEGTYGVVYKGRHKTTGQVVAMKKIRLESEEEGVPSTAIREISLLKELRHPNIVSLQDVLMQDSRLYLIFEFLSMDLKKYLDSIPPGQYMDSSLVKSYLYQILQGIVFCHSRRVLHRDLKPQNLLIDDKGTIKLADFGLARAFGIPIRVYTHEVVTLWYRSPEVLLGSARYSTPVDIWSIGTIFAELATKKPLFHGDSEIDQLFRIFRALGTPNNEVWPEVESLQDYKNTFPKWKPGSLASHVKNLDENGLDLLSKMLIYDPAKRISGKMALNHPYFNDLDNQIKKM

B1: GST-USP7 210-500 (domain or fragment, UniProt Q93009 210-500, looked up)
chain: HTGYVGLKNQGATCYMNSLLQTLFFTNQLRKAVYMMPTEGDDSSKSVPLALQRVFYELQHSDKPVGTKKLTKSFGWETLDSFMQHDVQELCRVLLDNVENKMKGTCVEGTIPKLFRGKMVSYIQCKEVDYRSDRREDYYDIQLSIKGKKNIFESFVDYVAVEQLDGDNKYDAGEHGLQEAEKGVKFLTLPPVLHLQLMRFMYDPQTDQNIKINDRFEFPEQLPLDEFLQKTDPKDPANYILHAVLVHSGDNHGGHYVVYLNPKGDGKWCKFDDDVVSRCTKEEAIEHNYGG
On to B1, for which the binding result is “binds”.

The values are drawn from article PMC11846418 (Cancer Cell International, 2025).
